The values that follow are results of earlier work, collected in publication PMC3505813.

In data set [1] the target is aminopeptidase N (APN) (Homo sapiens) (UniProt P15144).
In data set [2] the target is VCAM-1 (Homo sapiens) (UniProt P19320).
Sequence of UniProt P19320 (P19320 25-698): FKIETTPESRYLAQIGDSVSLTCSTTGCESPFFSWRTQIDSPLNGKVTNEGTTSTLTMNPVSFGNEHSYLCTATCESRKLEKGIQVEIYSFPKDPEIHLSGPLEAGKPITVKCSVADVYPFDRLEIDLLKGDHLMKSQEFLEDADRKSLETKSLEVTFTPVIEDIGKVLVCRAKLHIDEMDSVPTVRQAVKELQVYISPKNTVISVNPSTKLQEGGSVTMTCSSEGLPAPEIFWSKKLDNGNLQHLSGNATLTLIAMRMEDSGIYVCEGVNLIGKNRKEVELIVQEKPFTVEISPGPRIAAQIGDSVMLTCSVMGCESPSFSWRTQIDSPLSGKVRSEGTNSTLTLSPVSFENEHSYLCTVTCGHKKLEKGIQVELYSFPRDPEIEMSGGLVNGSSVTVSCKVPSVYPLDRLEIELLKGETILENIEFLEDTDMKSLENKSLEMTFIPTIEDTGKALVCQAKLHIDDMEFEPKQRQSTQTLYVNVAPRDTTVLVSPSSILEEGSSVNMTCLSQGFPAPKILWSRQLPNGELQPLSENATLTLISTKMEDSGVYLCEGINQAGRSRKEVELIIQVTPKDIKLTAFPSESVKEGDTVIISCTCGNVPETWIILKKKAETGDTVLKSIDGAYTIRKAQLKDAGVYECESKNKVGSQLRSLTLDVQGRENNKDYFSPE

Sequence of UniProt P15144 (P15144 2-967): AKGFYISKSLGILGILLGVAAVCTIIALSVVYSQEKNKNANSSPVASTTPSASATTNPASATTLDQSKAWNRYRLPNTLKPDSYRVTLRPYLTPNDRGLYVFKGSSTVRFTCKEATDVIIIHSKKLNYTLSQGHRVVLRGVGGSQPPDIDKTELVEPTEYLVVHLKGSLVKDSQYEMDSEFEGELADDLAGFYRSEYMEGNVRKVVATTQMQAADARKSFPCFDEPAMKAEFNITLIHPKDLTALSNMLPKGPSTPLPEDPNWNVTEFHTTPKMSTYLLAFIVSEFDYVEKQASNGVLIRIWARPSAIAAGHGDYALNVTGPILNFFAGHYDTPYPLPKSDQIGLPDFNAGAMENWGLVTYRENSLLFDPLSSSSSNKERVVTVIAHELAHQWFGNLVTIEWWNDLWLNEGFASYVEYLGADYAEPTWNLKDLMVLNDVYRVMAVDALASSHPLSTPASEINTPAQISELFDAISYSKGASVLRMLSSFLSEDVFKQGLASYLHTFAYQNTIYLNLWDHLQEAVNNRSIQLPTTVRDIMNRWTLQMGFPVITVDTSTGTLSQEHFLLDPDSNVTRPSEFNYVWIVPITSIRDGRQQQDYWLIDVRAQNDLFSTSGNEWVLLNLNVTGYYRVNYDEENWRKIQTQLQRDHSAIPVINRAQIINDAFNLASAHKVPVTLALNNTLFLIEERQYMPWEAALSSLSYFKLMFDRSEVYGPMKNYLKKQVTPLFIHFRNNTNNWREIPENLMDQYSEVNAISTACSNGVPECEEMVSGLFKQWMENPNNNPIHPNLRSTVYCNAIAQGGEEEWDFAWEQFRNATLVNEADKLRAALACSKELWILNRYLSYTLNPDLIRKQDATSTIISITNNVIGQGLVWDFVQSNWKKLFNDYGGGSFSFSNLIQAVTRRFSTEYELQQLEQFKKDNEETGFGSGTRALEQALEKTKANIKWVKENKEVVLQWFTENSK

On to NGR peptide, for which the equilibrium dissociation constant (Kd) in data set [1] is 300 µM.
On to VHP peptide, for which the Kd in data set [2] was 30 µM.
